US20220000982A1 (Novo Nordisk, published 2022)
*1 amine or outer side, *2 acyl side, *3 side chain or, on linkers, in order; H or OH if unused. Where no end group is shown, it is not given here. Side-chain parts run from the residue outwards. [ ]: non-standard residue; d: D form. The star is where a group is joined. C18 diacid = O=C(O)CCCCCCCCCCCCCCCCC(=O)*; γGlu = O=C(O)[C@H](CCC(=O)[*:2])N[*:1]; Nle = CCCC[C@H](N)C(=O)O; AEEA = NCCOCCOCC(=O)O; Aib = CC(C)(N)C(=O)O

Tests used:
Assay in all cases: cell-based or functional assay
human GIP receptor = target: T1, human GIP receptor (human, UniProt P48546 22-466)
T1 sequence (looked up): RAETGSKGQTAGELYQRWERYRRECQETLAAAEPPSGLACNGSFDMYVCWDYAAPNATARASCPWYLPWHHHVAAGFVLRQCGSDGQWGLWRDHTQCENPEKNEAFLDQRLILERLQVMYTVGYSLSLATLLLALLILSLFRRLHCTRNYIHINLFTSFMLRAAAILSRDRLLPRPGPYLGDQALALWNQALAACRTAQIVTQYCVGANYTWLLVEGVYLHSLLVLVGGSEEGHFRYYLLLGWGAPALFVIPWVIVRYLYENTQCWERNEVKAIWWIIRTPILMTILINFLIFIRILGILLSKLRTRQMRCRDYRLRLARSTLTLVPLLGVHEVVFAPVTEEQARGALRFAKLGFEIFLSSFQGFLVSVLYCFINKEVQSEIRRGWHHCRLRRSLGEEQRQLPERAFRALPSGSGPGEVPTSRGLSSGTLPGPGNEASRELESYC

human GLP-1 receptor = human GLP-1 receptor (human, UniProt P43220 24-463)
human glucagon receptor = human glucagon receptor (human, UniProt P47871 26-477)
Chain of human glucagon receptor (P47871 26-477): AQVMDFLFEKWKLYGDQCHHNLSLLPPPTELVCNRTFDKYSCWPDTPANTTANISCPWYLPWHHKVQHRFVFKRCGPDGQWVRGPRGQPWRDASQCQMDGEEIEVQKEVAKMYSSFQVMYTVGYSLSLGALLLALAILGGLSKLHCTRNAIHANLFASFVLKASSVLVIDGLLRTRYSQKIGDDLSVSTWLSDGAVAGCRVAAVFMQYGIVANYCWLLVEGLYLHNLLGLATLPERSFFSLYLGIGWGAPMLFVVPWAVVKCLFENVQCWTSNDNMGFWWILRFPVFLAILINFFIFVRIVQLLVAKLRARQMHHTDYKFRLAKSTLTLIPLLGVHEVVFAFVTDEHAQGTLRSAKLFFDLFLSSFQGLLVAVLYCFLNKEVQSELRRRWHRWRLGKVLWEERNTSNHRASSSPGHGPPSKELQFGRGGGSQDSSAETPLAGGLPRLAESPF

B1: N{Epsilon-24}-[(4S)-4-carboxy-4-[[(4S)-4-carboxy-4-[[(4S)-4-carboxy-4-(17-carboxyheptadecanoylamino)butanoyl]amino]butanoyl]amino]butanoyl]-[Aib2,Nle14,Lys24,Gl … (peptide)
peptide: Y[Aib]EGTFISDYSIA[Nle]DKIHQQDFVK([γGlu-γGlu-γGlu-C18 diacid])WLLAQKGKEDDWKHNITQ
In the case of B1, the “EC50, hGIP-R CRE Luc, 0.2% HSA” value (human GIP receptor) is reported as 5.9 pM, the “EC50, hGLP-1-R CRE Luc, 0.2% HSA” value (human GLP-1 receptor) is reported as > 100 nM and the “EC50, hGcg-R CRE Luc, 0.2% HSA” value (human glucagon receptor) is reported as > 100 nM.

B2: N{Epsilon-24}-[(4S)-4-carboxy-4-[[(4S)-4-carboxy-4-[[(4S)-4-carboxy-4-(17-carboxyheptadecanoylamino)butanoyl]amino]butanoyl]amino]butanoyl]-[Aib2,Nle14,Arg18,Ly … (peptide)
peptide: Y[Aib]EGTFISDYSIA[Nle]DKIRQQDFVK([γGlu-γGlu-γGlu-C18 diacid])WLLAQKGKEEDWKHNITQ
With B2 the “EC50, hGIP-R CRE Luc, 0.2% HSA” value (human GIP receptor) was 4.47 pM, the “EC50, hGLP-1-R CRE Luc, 0.2% HSA” value (human GLP-1 receptor) was > 100 nM and the “EC50, hGcg-R CRE Luc, 0.2% HSA” value (human glucagon receptor) was > 100 nM.

B3: N{Epsilon-24}-[2-[2-[2-[[2-[2-[2-[[(4S)-4-carboxy-4-(17-carboxyheptadecanoylamino)butanoyl]amino]ethoxy]ethoxy]acetyl]amino]ethoxy]ethoxy]acetyl]-[Aib2,Leu14,Ly … (peptide)
peptide: Y[Aib]EGTFISDYSIALDKIHQQDFVK([AEEA-AEEA-γGlu-C18 diacid])WLLAQKGKKNDWKHNITQ
In the case of B3, the “EC50, hGIP-R CRE Luc, 0.2% HSA” value (human GIP receptor) is reported as 56 pM, the “EC50, hGLP-1-R CRE Luc, 1% HSA (*)” value (human GLP-1 receptor) is reported as > 100 nM and the “EC50, hGcg-R CRE Luc, 1% HSA (*)” value (human glucagon receptor) is reported as > 100 nM.
